Assay results: publication PMC8412382

Target: bovine albumin (BSA) (bovine, UniProt P02769 25-607)
Assay: SPR

bovine albumin (BSA), sequence (P02769 25-607): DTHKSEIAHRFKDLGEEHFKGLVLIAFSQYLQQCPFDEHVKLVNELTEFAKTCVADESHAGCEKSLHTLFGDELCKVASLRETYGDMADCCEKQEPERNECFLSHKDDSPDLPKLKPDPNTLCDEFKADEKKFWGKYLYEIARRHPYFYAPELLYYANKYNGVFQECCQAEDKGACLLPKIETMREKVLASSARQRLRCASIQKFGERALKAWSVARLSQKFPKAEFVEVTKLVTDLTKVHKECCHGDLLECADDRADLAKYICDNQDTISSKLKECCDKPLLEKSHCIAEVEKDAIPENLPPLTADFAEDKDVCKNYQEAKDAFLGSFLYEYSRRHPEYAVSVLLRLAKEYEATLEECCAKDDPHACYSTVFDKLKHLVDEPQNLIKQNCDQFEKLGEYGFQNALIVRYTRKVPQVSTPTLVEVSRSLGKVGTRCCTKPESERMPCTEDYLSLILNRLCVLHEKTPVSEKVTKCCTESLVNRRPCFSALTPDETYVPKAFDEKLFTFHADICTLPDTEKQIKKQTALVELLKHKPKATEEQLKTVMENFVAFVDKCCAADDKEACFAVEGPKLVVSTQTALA

B1: N58 aptamer (SARS-CoV-2-N58) (ssDNA)
DNA: GCTGGATGTCACCGGATTGTCGGACATCGGATTGTCTGAGTCATATGACACATCCAGC
Question: Does B1 bind?
Answer: no binding
